Experimental data published in article PMC9482650, “Quantitative fragmentomics allow affinity mapping of interactomes” (Nature Communications, 2022).

T1: PDZD2_2, O15018
T1 sequence (O15018 329-429, limits assumed, looked up): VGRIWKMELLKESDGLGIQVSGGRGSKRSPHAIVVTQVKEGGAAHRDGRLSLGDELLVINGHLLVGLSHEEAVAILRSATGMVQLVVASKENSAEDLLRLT

T2: LNX2_3, Q8N448
T2 sequence (Q8N448 463-564, limits assumed, looked up): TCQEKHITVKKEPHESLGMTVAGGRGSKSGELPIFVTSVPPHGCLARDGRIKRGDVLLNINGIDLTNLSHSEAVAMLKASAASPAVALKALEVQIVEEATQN

T3: APBA2_1, Q99767
T3 sequence (Q99767 563-664, limits assumed, looked up): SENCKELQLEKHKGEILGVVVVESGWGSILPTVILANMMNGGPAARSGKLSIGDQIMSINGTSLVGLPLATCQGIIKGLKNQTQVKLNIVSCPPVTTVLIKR

T4: NHERF3_4, Q5T2W1
T4 sequence (Q5T2W1 373-468, limits assumed, looked up): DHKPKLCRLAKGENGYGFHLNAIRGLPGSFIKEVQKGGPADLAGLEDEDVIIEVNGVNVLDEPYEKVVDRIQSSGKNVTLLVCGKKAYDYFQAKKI

T5: DVL3, Q92997
T5 sequence (Q92997 244-331, limits assumed, looked up): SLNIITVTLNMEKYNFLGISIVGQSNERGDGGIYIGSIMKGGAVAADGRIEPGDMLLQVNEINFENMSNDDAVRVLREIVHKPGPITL

T6: TJP3_3, O95049
T6 sequence (O95049 375-456, limits assumed, looked up): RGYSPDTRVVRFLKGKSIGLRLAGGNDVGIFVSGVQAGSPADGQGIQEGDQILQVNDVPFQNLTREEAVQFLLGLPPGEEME

T7: PDZD7_3, Q9H5P4
T7 sequence (Q9H5P4 857-944, limits assumed, looked up): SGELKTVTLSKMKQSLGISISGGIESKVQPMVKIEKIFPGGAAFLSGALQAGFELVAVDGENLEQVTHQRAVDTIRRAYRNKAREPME

T8: APBA1_2, Q02410
T8 sequence (Q02410 742-832, limits assumed, looked up): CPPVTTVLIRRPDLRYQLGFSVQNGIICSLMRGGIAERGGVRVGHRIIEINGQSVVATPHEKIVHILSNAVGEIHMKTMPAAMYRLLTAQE

T9: NHERF3_3, Q5T2W1
T9 sequence (Q5T2W1 238-333, limits assumed, looked up): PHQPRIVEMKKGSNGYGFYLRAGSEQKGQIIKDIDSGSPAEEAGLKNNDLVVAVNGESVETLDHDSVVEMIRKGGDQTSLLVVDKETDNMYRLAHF

T10: APBA3_1, O96018
T10 sequence (O96018 389-490, limits assumed, looked up): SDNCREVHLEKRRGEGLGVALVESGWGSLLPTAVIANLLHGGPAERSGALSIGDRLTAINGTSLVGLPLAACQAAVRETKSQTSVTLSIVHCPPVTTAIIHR

T11: LRRC7, Q96NW7
T11 sequence (Q96NW7 1440-1537, limits assumed, looked up): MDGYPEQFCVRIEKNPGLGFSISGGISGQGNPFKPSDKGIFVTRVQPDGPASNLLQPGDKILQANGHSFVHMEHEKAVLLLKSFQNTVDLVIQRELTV

T12: GRIP1_3, Q9Y3R0
T12 sequence (Q9Y3R0 247-346, limits assumed, looked up): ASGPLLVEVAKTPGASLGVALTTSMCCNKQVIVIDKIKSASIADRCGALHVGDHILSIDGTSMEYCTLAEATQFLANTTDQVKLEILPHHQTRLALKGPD

T13: DFNB31_3, Q9P202
T13 sequence (Q9P202 811-907, limits assumed, looked up): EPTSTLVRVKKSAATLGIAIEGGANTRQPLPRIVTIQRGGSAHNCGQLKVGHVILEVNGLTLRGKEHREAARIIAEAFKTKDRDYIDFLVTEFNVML

T14: HTRA3, P83110
T14 sequence (P83110 354-453, limits assumed, looked up): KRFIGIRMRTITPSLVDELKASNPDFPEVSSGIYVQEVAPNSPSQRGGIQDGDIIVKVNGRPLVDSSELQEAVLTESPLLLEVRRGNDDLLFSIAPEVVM


What was measured:
Test in all cases: holdup assay
Set-up in all cases: key: below the threshold = too weak to quantify, mostly under pKd 3.1 to 4
Conditions in all cases: plain residues with an end cap or a label only (N-terminal biotin on a linker: ado-ado)
GIPC2, Q8TF65 = target: GIPC2, Q8TF65
GRIP2_7, Q9C0E4 = target: GRIP2_7, Q9C0E4
LNX1_1, Q8TBB1 = target: LNX1_1, Q8TBB1
Inadl_5, Q8NI35 = target: Inadl_5, Q8NI35
MAST1, Q9Y2H9 = target: MAST1, Q9Y2H9
PDZD2_2, O15018 = target: T1, PDZD2_2, O15018
LNX2_3, Q8N448 = target: T2, LNX2_3, Q8N448
APBA2_1, Q99767 = target: T3, APBA2_1, Q99767
DLG2_2, Q15700 = target: DLG2_2, Q15700
NHERF3_4, Q5T2W1 = target: T4, NHERF3_4, Q5T2W1
TJP1_3, Q07157 = target: TJP1_3, Q07157
DVL3, Q92997 = target: T5, DVL3, Q92997
TJP3_3, O95049 = target: T6, TJP3_3, O95049
PDZD7_3, Q9H5P4 = target: T7, PDZD7_3, Q9H5P4
APBA1_2, Q02410 = target: T8, APBA1_2, Q02410
NHERF3_3, Q5T2W1 = target: T9, NHERF3_3, Q5T2W1
APBA3_1, O96018 = target: T10, APBA3_1, O96018
LRRC7, Q96NW7 = target: T11, LRRC7, Q96NW7
GRIP1_3, Q9Y3R0 = target: T12, GRIP1_3, Q9Y3R0
IL16_3, Q14005 = target: IL16_3, Q14005
DFNB31_3, Q9P202 = target: T13, DFNB31_3, Q9P202
HTRA3, P83110 = target: T14, HTRA3, P83110
FRMPD2_3, Q68DX3 = target: FRMPD2_3, Q68DX3
Inadl_9, Q8NI35 = target: Inadl_9, Q8NI35
Sequence of Inadl_9, Q8NI35 (Q8NI35 1530-1615): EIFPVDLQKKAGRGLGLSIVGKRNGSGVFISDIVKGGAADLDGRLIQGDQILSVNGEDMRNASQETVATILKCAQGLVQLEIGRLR

Sequence of LNX1_1, Q8TBB1 (Q8TBB1 261-371): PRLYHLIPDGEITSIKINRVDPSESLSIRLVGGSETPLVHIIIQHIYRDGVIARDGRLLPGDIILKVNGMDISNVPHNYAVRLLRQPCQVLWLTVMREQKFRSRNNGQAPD
Sequence of Inadl_5, Q8NI35 (Q8NI35 673-780): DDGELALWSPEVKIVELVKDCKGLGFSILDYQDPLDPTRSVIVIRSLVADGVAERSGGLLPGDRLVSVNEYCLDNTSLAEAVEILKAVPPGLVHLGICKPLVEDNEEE
Sequence of MAST1, Q9Y2H9 (Q9Y2H9 962-1065): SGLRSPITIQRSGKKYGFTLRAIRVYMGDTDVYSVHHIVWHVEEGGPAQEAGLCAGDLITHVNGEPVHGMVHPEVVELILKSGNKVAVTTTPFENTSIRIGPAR
Sequence of TJP1_3, Q07157 (Q07157 416-512): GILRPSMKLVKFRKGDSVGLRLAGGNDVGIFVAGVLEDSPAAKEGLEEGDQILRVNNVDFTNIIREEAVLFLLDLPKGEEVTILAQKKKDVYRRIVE
Sequence of IL16_3, Q14005 (Q14005 1107-1207): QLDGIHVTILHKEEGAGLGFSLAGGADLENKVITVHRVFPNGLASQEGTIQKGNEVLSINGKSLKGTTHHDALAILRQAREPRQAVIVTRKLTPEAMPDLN
Sequence of DLG2_2, Q15700 (Q15700 189-283): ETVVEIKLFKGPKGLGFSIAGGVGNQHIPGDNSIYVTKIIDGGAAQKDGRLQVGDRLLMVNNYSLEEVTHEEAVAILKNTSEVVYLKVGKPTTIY
Sequence of FRMPD2_3, Q68DX3 (Q68DX3 1073-1166): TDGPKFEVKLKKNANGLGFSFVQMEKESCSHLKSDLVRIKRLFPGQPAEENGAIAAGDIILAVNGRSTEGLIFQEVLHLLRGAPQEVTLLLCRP
Sequence of GIPC2, Q8TF65 (Q8TF65 112-203): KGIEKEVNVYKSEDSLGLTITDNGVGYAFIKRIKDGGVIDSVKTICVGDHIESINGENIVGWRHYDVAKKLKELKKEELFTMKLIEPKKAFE
Sequence of GRIP2_7, Q9C0E4 (Q9C0E4 934-1023): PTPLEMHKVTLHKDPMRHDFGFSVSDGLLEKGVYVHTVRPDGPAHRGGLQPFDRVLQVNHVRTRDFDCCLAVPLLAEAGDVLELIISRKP

pKd (GIPC2, Q8TF65)	pKd (GRIP2_7, Q9C0E4)	pKd (LNX1_1, Q8TBB1)	pKd (Inadl_5, Q8NI35)	pKd (MAST1, Q9Y2H9)	pKd (PDZD2_2, O15018)	pKd (LNX2_3, Q8N448)	pKd (APBA2_1, Q99767)	pKd (DLG2_2, Q15700)	pKd (NHERF3_4, Q5T2W1)	pKd (TJP1_3, Q07157)	pKd (DVL3, Q92997)	pKd (TJP3_3, O95049)	pKd (PDZD7_3, Q9H5P4)	pKd (APBA1_2, Q02410)	pKd (NHERF3_3, Q5T2W1)	pKd (APBA3_1, O96018)	pKd (LRRC7, Q96NW7)	pKd (GRIP1_3, Q9Y3R0)	pKd (IL16_3, Q14005)	Binder	further results
below the threshold	below the threshold	3.79	below the threshold	4.7	3.53	below the threshold	below the threshold	3.74	3.85	below the threshold	below the threshold	below the threshold	4.28	3.54	below the threshold	below the threshold	below the threshold	below the threshold	below the threshold	LPHGHSTTRV [NLGN4X, Q8N0W4]	pKd (DFNB31_3, Q9P202): 3.96; pKd (HTRA3, P83110): below the threshold; pKd (FRMPD2_3, Q68DX3): below the threshold; pKd (Inadl_9, Q8NI35): below the threshold
below the threshold	below the threshold	below the threshold	below the threshold	3.61	below the threshold	below the threshold	below the threshold	below the threshold	below the threshold	below the threshold	below the threshold	below the threshold	below the threshold	below the threshold	below the threshold	below the threshold	below the threshold	below the threshold	below the threshold	SKSNFGSEPL [KIF17, Q9P2E2]	pKd (DFNB31_3, Q9P202): below the threshold; pKd (HTRA3, P83110): below the threshold; pKd (FRMPD2_3, Q68DX3): below the threshold; pKd (Inadl_9, Q8NI35): below the threshold
below the threshold	4.32	3.5	4.47	below the threshold	5.65	below the threshold	below the threshold	3.62	below the threshold	4.34	4.38	5	below the threshold	5.02	below the threshold	below the threshold	4.03	below the threshold	below the threshold	YYKRPVQEWV [MMP24, Q9Y5R2]	pKd (DFNB31_3, Q9P202): 3.63; pKd (HTRA3, P83110): 5.7; pKd (FRMPD2_3, Q68DX3): 3.52; pKd (Inadl_9, Q8NI35): 4.17
below the threshold	below the threshold	below the threshold	below the threshold	4.11	below the threshold	below the threshold	below the threshold	below the threshold	below the threshold	below the threshold	below the threshold	below the threshold	3.74	below the threshold	below the threshold	below the threshold	below the threshold	below the threshold	below the threshold	VRNLPESEEL [MYOZ3, Q8TDC0]	pKd (DFNB31_3, Q9P202): below the threshold; pKd (HTRA3, P83110): below the threshold; pKd (FRMPD2_3, Q68DX3): below the threshold; pKd (Inadl_9, Q8NI35): below the threshold
below the threshold	below the threshold	below the threshold	below the threshold	4.21	below the threshold	below the threshold	below the threshold	below the threshold	below the threshold	below the threshold	below the threshold	below the threshold	below the threshold	below the threshold	below the threshold	below the threshold	below the threshold	below the threshold	below the threshold	DTTVPESEDL [MYOZ2, Q9NPC6]	pKd (DFNB31_3, Q9P202): below the threshold; pKd (HTRA3, P83110): below the threshold; pKd (FRMPD2_3, Q68DX3): below the threshold; pKd (Inadl_9, Q8NI35): below the threshold
3.78	3.56	4.12	below the threshold	4.8	4.79	below the threshold	below the threshold	4.9	below the threshold	below the threshold	below the threshold	below the threshold	5.09	4.32	below the threshold	below the threshold	3.89	below the threshold	below the threshold	PDGQCTVTEV [RNF146, Q9NTX7]	pKd (DFNB31_3, Q9P202): 3.99; pKd (HTRA3, P83110): below the threshold; pKd (FRMPD2_3, Q68DX3): below the threshold; pKd (Inadl_9, Q8NI35): 3.72
